The text below walks through data of article PMC11927755.

The target of the test is preformed microtubules (polymerized tubulin, paclitaxel-stabilised) (UniProt P02550). Briefly: co-sedimentation; microtubule spin-down: 1 μM tau with paclitaxel-stabilised preformed microtubules in general tubulin buffer (80 mM PIPES pH 7.0, 1 mM MgCl2, 1 mM EGTA), 30 min at RT, through a sucrose cushion at 100,000 RCF for 40 min, pellet washed twice; tau (Tau5) and tubulin (5H1) in supernatant and pellet by Western blot; % tau in pellet. (A western blot detects proteins with antibodies after separation by electrophoresis.)
Sequence of UniProt P02550 (P02550 whole entry, looked up): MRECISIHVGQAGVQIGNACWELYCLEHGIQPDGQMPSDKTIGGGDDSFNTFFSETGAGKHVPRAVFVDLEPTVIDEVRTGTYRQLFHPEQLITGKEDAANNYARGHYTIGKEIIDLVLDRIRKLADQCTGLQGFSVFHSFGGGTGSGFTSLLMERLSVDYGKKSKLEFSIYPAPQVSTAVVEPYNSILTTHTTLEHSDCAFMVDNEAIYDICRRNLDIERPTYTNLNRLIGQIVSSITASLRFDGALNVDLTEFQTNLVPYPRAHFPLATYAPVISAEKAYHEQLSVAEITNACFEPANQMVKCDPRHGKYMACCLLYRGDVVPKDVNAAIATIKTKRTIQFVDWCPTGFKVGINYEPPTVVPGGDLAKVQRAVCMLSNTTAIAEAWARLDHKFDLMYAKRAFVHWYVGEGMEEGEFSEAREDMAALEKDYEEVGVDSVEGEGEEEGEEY

With “O-GlcNAc modified hT39 (Glc hT39, 2N3R tau) (from UniProt P10636-5 1-410) (natural protein)”, the percent decrease of tau in the pelleted microtubule fraction relative to unmodified hT39 stood at 45%.
